Measurements: patent US20250326840A1 (QURE BIOTECHNOLOGY SHANGHAI, published 2025)
Positions count from the first letter of the chain named. In names and notes the source's numbering stands. Values belong to the binder of their own block, whether it stands above or below them.

How the values were obtained:
[1] = molecular target: T1, SIRPα V1 fusion Fc (mouse IgG2a) (human, limits assumed); experiment: ELISA, SIRPα V1-mouse IgG2a Fc coated, anti-hFab detection; unit from the x axis Log(Conc.(nM))
T1 chain: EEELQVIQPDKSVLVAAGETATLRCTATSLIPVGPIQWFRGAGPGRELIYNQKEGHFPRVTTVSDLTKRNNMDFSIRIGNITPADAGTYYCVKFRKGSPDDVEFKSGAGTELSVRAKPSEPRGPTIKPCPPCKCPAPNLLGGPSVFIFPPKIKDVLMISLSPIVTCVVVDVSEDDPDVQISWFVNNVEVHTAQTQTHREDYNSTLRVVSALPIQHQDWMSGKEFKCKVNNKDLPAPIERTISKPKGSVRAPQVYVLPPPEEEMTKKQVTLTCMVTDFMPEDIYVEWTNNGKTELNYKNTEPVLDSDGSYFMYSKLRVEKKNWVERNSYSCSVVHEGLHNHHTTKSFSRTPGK

[2] = molecular target: T2, SIRPα V6 fusion Fc (mouse IgG2a) (human, limits assumed); experiment: ELISA, SIRPα V6-mouse IgG2a Fc coated, anti-hFab detection; unit from the x axis Log(Conc.(nM))
T2 chain: T1 chain with S75P

[3] = molecular target: T3, SIRPα V5 fusion Fc (mouse IgG2a) (human, limits assumed); experiment: ELISA, SIRPα V5-mouse IgG2a Fc coated, anti-hFab detection; unit from the x axis Log(Conc.(nM))
T3 chain: T1 chain with S12F

[4] = molecular target: T4, SIRPα V9 fusion Fc (mouse IgG2a) (human, limits assumed); experiment: ELISA, SIRPα V9-mouse IgG2a Fc coated, anti-hFab detection; unit from the x axis Log(Conc.(nM))
T4 chain: T1 chain with G79S

[5] = molecular target: T5, human SIRPα V2 on THP-1 cells (human, UniProt P78324 31-504); experiment: FACS on THP-1 cells
T5 construct: whole, on cells; also called THP-1 (human SIRPα V2)

[6] = molecular target: T6, QP537 (SIRPαV8-mFC(mIgG2a)) (human); experiment: ELISA, human SIRPα V8 recombinant protein (QP537) coated, HRP anti-human Fc detection
T6 construct: also called human SIRPα V8 recombinant protein (QP537)

[7] = molecular target: T7, QP095 (human SIRPα V2 ECD(E31-R370)-mFC(IgG2a)) (human); experiment: ELISA, human SIRPα V2 recombinant protein (QP095) coated, HRP anti-human Fc detection
T7 construct: also called human SIRPα V2 recombinant protein (QP095)

[8] = molecular target: T8, QP538 (SIRPαV9-mFC(mIgG2a)) (human, limits assumed); experiment: ELISA, human SIRPα V9 recombinant protein (QP538) coated, HRP anti-human Fc detection
T8 construct: also called human SIRPα V9 recombinant protein (QP538)
T8 chain: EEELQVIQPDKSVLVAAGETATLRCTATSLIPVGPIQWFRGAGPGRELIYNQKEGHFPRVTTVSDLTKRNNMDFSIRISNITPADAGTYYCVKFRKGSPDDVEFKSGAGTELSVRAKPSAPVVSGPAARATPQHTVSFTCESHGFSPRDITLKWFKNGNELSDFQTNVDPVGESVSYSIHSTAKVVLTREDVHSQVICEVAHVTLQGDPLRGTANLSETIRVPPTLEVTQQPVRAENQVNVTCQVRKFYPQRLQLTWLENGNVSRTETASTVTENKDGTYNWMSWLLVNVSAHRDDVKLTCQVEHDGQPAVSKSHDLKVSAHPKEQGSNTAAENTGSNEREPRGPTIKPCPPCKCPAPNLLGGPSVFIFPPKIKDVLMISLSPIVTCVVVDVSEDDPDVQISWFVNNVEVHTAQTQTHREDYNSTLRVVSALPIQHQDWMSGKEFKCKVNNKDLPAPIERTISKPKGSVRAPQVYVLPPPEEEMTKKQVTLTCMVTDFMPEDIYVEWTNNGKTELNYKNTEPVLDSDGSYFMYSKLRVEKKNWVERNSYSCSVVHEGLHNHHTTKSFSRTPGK

T5 sequence (P78324 other isoform, or with tags, fused parts or gaps limits assumed): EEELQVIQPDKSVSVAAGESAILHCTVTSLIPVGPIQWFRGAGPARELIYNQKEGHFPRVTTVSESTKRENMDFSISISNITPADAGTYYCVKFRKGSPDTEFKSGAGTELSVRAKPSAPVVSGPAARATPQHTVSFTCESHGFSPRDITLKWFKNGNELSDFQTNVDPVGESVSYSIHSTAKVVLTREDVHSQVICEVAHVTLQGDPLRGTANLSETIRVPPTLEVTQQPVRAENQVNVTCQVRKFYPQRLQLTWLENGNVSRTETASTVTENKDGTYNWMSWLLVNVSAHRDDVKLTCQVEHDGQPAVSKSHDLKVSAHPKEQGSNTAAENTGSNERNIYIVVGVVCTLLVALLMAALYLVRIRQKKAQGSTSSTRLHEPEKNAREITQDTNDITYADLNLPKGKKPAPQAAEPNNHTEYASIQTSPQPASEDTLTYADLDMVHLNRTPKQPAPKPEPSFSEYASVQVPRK

B2: QP32700279 (antibody, human IgG1, kappa, L234A L235A, V domains shown)
VH: QVQLVQSGAEVKKPGASVKVSCKASGYTFTNYWINWVRQAPGQGLEWIAMIDPSDSETHYNQIFKDRATLTTDTSTSTAYMELRSLRSDDTAVYYCAMDYGSLYAMDYWGRGTLVTVSS
VL: DIVLTQSPDSLAVSLGERATINCRASQSVRSSGYNWIFWYQQKPGQPPKLLIYLASNRDSGVPDRFSGSGSGTDFTLTISSLQAEDVAVYYCQHSRELPTFGQGTKLEIKR
notes: also called SIRPα monoclonal antibody CHO71
EC50 [5]: 0.0743 nM
EC50 [6]: 0.341 nM
EC50 [7]: 0.186 nM
EC50 [8]: 0.361 nM

B3: QP250251 (18D5 analog) (antibody, human IgG4 S228P, kappa, V domains shown)
VH: QVQLQQPGAELVRPGSSVKLSCKASGYTFTSYWVHWVKQRPIQGLEWIGNIDPSDSDTHYNQKFKDKASLTVDKSSSTAYMQLSSLTFEDSAVYYCVRGGTGTMAWFAYWGQGTLVTVSA
VL: DVVMTQTPLSLPVSLGDQASISCRSSQSLVHSYGNTYLYWYLQKPGQSPKLLIYRVSNRFSGVPDRFSGSGSGTDFTLKISRVEAEDLGVYFCFQGTHVPYTFGSGTKLEIKR
notes: also called SIRPα antibody 18D5 from OSE
binding result [5]: no binding
EC50 [1]: 0.154 nM
EC50 [2]: 0.114 nM
EC50 [3]: 0.13 nM
EC50 [8]: 0.854 nM
EC50 [4]: 0.157 nM

B5: QP37503751 (1H9 analog) (antibody, human IgG1, kappa, N297A, V domains shown)
VH: QVQLVQSGAEVKKPGASVKVSCKASGYTFTSYWITWVKQAPGQGLEWIGDIYPGSGSTNHIEKFKSKATLTVDTSISTAYMELSRLRSDDTAVYYCATGYGSSYGYFDYWGQGTLVTVSS
VL: DIQMTQSPSSLSASVGDRVTITCRASENIYSYLAWYQQKPGKAPKLLIYTAKTLAEGVPSRFSGSGSGTDFTLTISSLQPEDFATYYCQHQYGPPFTFGQGTKLEIKR
notes: also called hz1H9 hIgG1(N297A)
EC50 [5]: 0.21 nM
EC50 [6]: 0.908 nM
EC50 [7]: 0.218 nM
EC50 [8]: 0.438 nM

Now from value to binder:

EC50 [1]: 0.0786 nM
EC50 [2]: 0.053 nM
EC50 [3]: 0.0691 nM
EC50 [4]: 0.0874 nM
B1: QP256279 (antibody, human IgG4, V domains shown)
VH: B2 VH
VL: DIVLTQSPDSLAVSLGERATINCRASQSVRSSGYNWIFWYQQKPGQPPKLLIYLASNRDSGVPDRFSGSGSGTDFTLTISSLQAEDVAVYYCQHSRELPTFGQGTKLEIK
notes: Human IgG4 heavy constant region and kappa CL

EC50 [5]: 0.261 nM
EC50 [6]: 0.689 nM
EC50 [7]: 0.467 nM
EC50 [1]: 0.16 nM
EC50 [2]: 0.119 nM
EC50 [3]: 0.144 nM
EC50 [8]: 0.804 nM
EC50 [4]: 0.181 nM
B4: QP026249 (KWAR23 analog) (antibody, human IgG4 S228P, kappa)
heavy: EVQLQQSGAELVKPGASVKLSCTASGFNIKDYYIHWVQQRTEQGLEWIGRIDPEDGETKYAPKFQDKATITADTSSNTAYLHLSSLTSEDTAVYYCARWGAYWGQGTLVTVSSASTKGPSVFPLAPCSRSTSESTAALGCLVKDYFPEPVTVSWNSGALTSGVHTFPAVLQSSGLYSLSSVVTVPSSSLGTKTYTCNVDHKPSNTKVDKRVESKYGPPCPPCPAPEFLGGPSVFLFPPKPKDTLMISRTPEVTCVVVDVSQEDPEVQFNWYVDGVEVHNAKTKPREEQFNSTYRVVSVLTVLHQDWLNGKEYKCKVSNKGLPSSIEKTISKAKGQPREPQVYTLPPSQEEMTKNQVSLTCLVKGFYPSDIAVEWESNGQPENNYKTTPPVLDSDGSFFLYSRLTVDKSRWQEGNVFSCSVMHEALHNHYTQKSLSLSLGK
light: QIVLTQSPAIMSASPGEKVTLTCSASSSVSSSYLYWYQQKPGSSPKLWIYSTSNLASGVPARFSGSGSGTSYSLTISSMEAEDAASYFCHQWSSYPRTFGAGTKLELKRTVAAPSVFIFPPSDEQLKSGTASVVCLLNNFYPREAKVQWKVDNALQSGNSQESVTEQDSKDSTYSLSSTLTLSKADYEKHKVYACEVTHQGLSSPVTKSFNRGEC
notes: also called KAWA23 analog; control antibody KWAR23 (QP026249), human IgG4
